Bridges are numbered along the chain shown (N, C = ends). Where no end group is shown, it is not given here.
Biological target: T1, NPR-B receptor (UniProt P20594 23-1047, limits assumed)
T1 sequence (looked up): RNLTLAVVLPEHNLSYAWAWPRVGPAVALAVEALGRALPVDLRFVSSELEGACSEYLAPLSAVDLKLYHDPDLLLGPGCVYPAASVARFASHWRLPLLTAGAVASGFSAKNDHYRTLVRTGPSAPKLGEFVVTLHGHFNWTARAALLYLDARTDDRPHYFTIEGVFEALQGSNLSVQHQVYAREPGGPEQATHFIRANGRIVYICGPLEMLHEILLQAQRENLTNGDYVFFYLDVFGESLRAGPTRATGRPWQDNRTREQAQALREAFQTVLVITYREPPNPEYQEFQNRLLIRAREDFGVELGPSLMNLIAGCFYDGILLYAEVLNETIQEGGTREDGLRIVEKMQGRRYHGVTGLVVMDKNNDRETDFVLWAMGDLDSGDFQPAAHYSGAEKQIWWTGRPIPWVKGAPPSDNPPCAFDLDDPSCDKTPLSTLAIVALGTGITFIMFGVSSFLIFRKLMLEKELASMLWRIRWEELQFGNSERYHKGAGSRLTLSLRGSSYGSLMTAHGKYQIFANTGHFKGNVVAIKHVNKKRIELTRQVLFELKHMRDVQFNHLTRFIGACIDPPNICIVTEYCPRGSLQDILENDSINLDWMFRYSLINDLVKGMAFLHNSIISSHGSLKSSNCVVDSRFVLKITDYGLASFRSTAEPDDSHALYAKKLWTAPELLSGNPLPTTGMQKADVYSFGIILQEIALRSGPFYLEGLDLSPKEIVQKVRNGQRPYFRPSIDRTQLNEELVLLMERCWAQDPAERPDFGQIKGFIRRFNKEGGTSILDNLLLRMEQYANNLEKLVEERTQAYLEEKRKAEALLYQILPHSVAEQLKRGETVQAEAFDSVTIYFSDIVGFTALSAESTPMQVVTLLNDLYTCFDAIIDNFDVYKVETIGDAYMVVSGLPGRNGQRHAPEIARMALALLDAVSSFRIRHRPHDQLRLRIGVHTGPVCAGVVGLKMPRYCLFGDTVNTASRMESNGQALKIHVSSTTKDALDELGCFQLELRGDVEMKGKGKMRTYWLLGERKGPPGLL
Test: cell-based or functional assay

In the case of LQEHPNARKYKGANKKGLSKGCFGLKLDRIGSMSGLGC (disulfide 22-38) [CNP-38], the “Biopotency (%), F13, T0; cGMP stimulation in NPR-B overexpressing Hek293 cells, relative to CNP-38 reference standard” value is reported as 93%, the “Biopotency (%), F13, T3M, 5° C.; cGMP stimulation in NPR-B overexpressing Hek293 cells, relative to CNP-38 reference standard” value is reported as 107% and the “Biopotency (%), F13, T3M, 25° C.; cGMP stimulation in NPR-B overexpressing Hek293 cells, relative to CNP-38 reference standard” value is reported as 91%. For the same binder, the “Biopotency (%), F13, T3M, 30° C.; cGMP stimulation in NPR-B overexpressing Hek293 cells, relative to CNP-38 reference standard” value was 96%, the “Biopotency (%), F13, T3M, 40° C.; cGMP stimulation in NPR-B overexpressing Hek293 cells, relative to CNP-38 reference standard” value was 94% and the “Biopotency (%), F13, T6M 25° C.; cGMP stimulation in NPR-B overexpressing Hek293 cells, relative to CNP-38 reference standard” value was 106%. The “Biopotency (%), F13, T6M, 5° C.; cGMP stimulation in NPR-B overexpressing Hek293 cells, relative to CNP-38 reference standard” value was 95% and the “Biopotency (%), F13, T6M, 30° C.; cGMP stimulation in NPR-B overexpressing Hek293 cells, relative to CNP-38 reference standard” value was 89%.

Reference: patent US20220118053A1 (ASCENDIS PHARMA GROWTH DISORDERS A S, published 2022)
